Test results reported in patent US20250352661A1 (MYTHIC THERAPEUTICS, published 2025).

T1: LRRC15 on the surface of LRRC15+ cells (SAOS-2, U87MG) (UniProt Q8TF66 22-581, limits assumed)
T1 sequence (looked up): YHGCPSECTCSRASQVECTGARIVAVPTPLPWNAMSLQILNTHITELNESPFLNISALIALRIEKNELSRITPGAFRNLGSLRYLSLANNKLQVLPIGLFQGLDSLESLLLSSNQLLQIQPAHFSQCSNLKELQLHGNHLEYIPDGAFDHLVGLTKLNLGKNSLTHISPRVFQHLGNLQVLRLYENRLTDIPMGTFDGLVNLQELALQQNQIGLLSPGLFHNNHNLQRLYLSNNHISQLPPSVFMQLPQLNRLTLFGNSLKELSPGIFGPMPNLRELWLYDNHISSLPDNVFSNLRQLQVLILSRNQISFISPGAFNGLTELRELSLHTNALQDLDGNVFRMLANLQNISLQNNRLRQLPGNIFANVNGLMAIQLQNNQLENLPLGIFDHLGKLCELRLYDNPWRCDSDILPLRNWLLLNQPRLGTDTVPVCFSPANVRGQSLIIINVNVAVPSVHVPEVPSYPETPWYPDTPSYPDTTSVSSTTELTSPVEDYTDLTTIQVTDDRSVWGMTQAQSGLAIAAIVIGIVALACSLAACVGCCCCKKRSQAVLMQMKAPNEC

T2: Human LRRC15 Protein, His Tag (Acro Biosystems) (human, UniProt Q8TF66 22-538, limits assumed)
T2 construct: Bought protein with His tag
T2 sequence (looked up): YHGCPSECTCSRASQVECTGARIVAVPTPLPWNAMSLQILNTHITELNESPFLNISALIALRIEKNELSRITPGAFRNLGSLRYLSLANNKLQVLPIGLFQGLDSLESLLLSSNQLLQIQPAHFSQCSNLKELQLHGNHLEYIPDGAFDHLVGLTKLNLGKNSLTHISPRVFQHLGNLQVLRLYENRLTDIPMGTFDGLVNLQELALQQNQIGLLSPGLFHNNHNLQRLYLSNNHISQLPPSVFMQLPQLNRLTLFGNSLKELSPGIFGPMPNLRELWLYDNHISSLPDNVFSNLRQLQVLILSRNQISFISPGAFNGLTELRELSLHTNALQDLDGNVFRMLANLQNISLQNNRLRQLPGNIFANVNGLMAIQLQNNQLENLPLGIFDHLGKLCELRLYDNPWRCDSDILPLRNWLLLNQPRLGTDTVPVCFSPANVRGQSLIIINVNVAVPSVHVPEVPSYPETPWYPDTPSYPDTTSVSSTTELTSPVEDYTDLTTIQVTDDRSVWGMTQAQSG


Columns and labels:
[1] = biological target: T1, LRRC15 on the surface of LRRC15+ cells …; test: cell-based or functional assay
[2] = biological target: T1, LRRC15 on the surface of LRRC15+ cells …; test: cell-based or functional assay; remark: listed apart in the source
[3] = biological target: T2, Human LRRC15 Protein, His Tag (Acro …); test: BLI; dissociation pH 7.4 black, pH 5.4 grey [D00010 FIG. 1H]
Text: For each individual plot, antigen binding proteins were captured on anti-human Fc biosensors and associated with LRRC15 at pH 7.4. Dissociation was at pH 7.4 (black) or pH 5.4 (grey). Major X-axis ticks=100 seconds, with left dashed vertical line=0 seconds. Major Y-axis ticks=0.5 nm and octet plots are shown MYT5712 and MYT6080-MYT6121.
Multiple LRRC15-binding monoclonal antibodies have been described in the literature and can be used as a template for engineering pH-dependent binding. We selected discovery RabMAb clone 15G7 (rabbit VH SEQ ID NO: 378, rabbit VL SEQ ID NO: 451; humanized VH SEQ ID NO: 382, humanized VL SEQ ID NO: 455) as a LRRC15-binding monoclonal antibody for pH-engineering via histidine scanning. […] To generate pH-dependent sequence variants, individual amino acid residues within the heavy chain CDRs were systematically substituted with a histidine (or alanine if H was already present in a given position; e.g., MYT6099), one at a time (rabbit, MYT6080-6121). Desirable mutations were transferred to a humanized framework (humanized, MYT 8387-8411). After allowing for four days of protein expression, cell culture supernatants were collected, quantified by SDS-PAGE analysis, and the pH dependence of the variant was evaluated using biolayer interferometry (BLI) on an Octet RED 96e instrument. Briefly, cell culture supernatants were diluted based on qualitative expression level of the variant determined by visual examination of SDS-PAGE gels, 5 μL of cell culture supernatant was diluted into 195 μL of 1×PBST, pH 7.4 for high expressors, 25 μL of cell culture supernatant was diluted into 175 μL of 1×PBST, pH 7.4 for medium expressors and 100 μL of cell culture supernatant was diluted into 100 μL of 1×PBST, pH 7.4 for low expressors for loading onto the sensor tips.

| Binder | Internalization in SAOS-2 cells (10 nM, 24 hours), FOB = fold over background (IgG control) [1] | Internalization in SAOS-2 cells (10 nM, 24 hours), FOS = fold over samrotamab [1] [fold over samrotamab] | Internalization in U87MG cells (10 nM, 24 hours), FOB = fold over background (IgG control) [2] | Internalization in U87MG cells (10 nM, 24 hours), FOS = fold over samrotamab [2] [fold over samrotamab] | binding result [3] |
| --- | --- | --- | --- | --- | --- |
| MYT2737 (antibody, V domains shown) VH: EVQLVQSGAEVKKPGASVKVSCKASGYKFSSYWIEWVKQAPGQGLEWIGEILPGSDTTNYNEKFKDRATFTSDTSINTAYMELSRLRSDDTAVYYCARDRGNYRAWFGYWGQGTLVTVSS VL: DIQMTQSPSSLSASVGDRVTITCRASQDISNYLNWYQQKPGGAVKFLIYHTSRLHSGVPSRFSGSGSGTDYTLTISSLQPEDFATYFCQQGEALPWTFGGGTKVEIK | 2.01 fold over background (IgG control) | 0.62 | 2.07 fold over background (IgG control) | 1.24 | – |
| MYT8417 (antibody, V domains shown) VH: EVQLVESGGGLVQPGGSLRLSCTASGLDFRRTNYICWVRQAPGKGLEWVGCIYIADVVHYYASWAKGRFTFSRDTSKNTVYLQMNSLRAEDTAVYYCARGADGGFVYGMDLWGQGTLVTVSS VL: EIVMTQSPSTLSASVGDRVIITCQASQSIGNYLSWYQQKPGKAPKRLIYSASTLPSGVPSRFSGSGSGAEFTLTISSLQPDDFATYYCQNNYWLAHYGHPFGQGTKLTVL | 2.68 fold over background (IgG control) | 1.04 | 2.76 fold over background (IgG control) | 2.06 | – |
| MYT8422 (antibody, V domains shown, hu15G7 VL Y32H, Y92H; human Fc) VH: EVQLVESGGGLVQPGGSLRLSCTASGLDFRRTNYICWVRQAPGKGLEWVGCIYIADVVHYYASWAKGRFTFSRDTSKNTVYLQMNSLRAEDTAVYYCARGADGGFVYGMDLWGQGTLVTVSS VL: EIVMTQSPSTLSASVGDRVIITCQASQSIGNHLSWYQQKPGKAPKRLIYSASTLPSGVPSRFSGSGSGAEFTLTISSLQPDDFATYYCQNNHWLAGYGHPFGQGTKLTVL | – | – | – | – | binds |
| MYT8413 (antibody, V domains shown, hu15G7 VL G30H; human Fc) VH: EVQLVESGGGLVQPGGSLRLSCTASGLDFRRTNYICWVRQAPGKGLEWVGCIYIADVVHYYASWAKGRFTFSRDTSKNTVYLQMNSLRAEDTAVYYCARGADGGFVYGMDLWGQGTLVTVSS VL: EIVMTQSPSTLSASVGDRVIITCQASQSIHNYLSWYQQKPGKAPKRLIYSASTLPSGVPSRFSGSGSGAEFTLTISSLQPDDFATYYCQNNYWLAGYGHPFGQGTKLTVL | – | – | – | – | binds |
| MYT8420 (antibody, V domains shown, hu15G7 VL G30H, W93H; human Fc) VH: EVQLVESGGGLVQPGGSLRLSCTASGLDFRRTNYICWVRQAPGKGLEWVGCIYIADVVHYYASWAKGRFTFSRDTSKNTVYLQMNSLRAEDTAVYYCARGADGGFVYGMDLWGQGTLVTVSS VL: EIVMTQSPSTLSASVGDRVIITCQASQSIHNYLSWYQQKPGKAPKRLIYSASTLPSGVPSRFSGSGSGAEFTLTISSLQPDDFATYYCQNNYHLAGYGHPFGQGTKLTVL | – | – | – | – | binds |
| MYT8418 (antibody, V domains shown, hu15G7 VL G30H, Y32H; human Fc) VH: EVQLVESGGGLVQPGGSLRLSCTASGLDFRRTNYICWVRQAPGKGLEWVGCIYIADVVHYYASWAKGRFTFSRDTSKNTVYLQMNSLRAEDTAVYYCARGADGGFVYGMDLWGQGTLVTVSS VL: EIVMTQSPSTLSASVGDRVIITCQASQSIHNHLSWYQQKPGKAPKRLIYSASTLPSGVPSRFSGSGSGAEFTLTISSLQPDDFATYYCQNNYWLAGYGHPFGQGTKLTVL | – | – | – | – | binds |
| MYT8421 (antibody, V domains shown, hu15G7 VL G30H, G96H; human Fc) VH: EVQLVESGGGLVQPGGSLRLSCTASGLDFRRTNYICWVRQAPGKGLEWVGCIYIADVVHYYASWAKGRFTFSRDTSKNTVYLQMNSLRAEDTAVYYCARGADGGFVYGMDLWGQGTLVTVSS VL: EIVMTQSPSTLSASVGDRVIITCQASQSIHNYLSWYQQKPGKAPKRLIYSASTLPSGVPSRFSGSGSGAEFTLTISSLQPDDFATYYCQNNYWLAHYGHPFGQGTKLTVL | – | – | – | – | binds |
| MYT8414 (antibody, V domains shown, hu15G7 VL Y32H; human Fc) VH: EVQLVESGGGLVQPGGSLRLSCTASGLDFRRTNYICWVRQAPGKGLEWVGCIYIADVVHYYASWAKGRFTFSRDTSKNTVYLQMNSLRAEDTAVYYCARGADGGFVYGMDLWGQGTLVTVSS VL: EIVMTQSPSTLSASVGDRVIITCQASQSIGNHLSWYQQKPGKAPKRLIYSASTLPSGVPSRFSGSGSGAEFTLTISSLQPDDFATYYCQNNYWLAGYGHPFGQGTKLTVL | – | – | – | – | binds |
| MYT8419 (antibody, V domains shown, hu15G7 VL G30H, Y92H; human Fc) VH: EVQLVESGGGLVQPGGSLRLSCTASGLDFRRTNYICWVRQAPGKGLEWVGCIYIADVVHYYASWAKGRFTFSRDTSKNTVYLQMNSLRAEDTAVYYCARGADGGFVYGMDLWGQGTLVTVSS VL: EIVMTQSPSTLSASVGDRVIITCQASQSIHNYLSWYQQKPGKAPKRLIYSASTLPSGVPSRFSGSGSGAEFTLTISSLQPDDFATYYCQNNHWLAGYGHPFGQGTKLTVL | – | – | – | – | binds |
| MYT8483 (antibody, IgG1, V domains shown) VH: EVQLVESGGGLVQPGGSLRLSCTASGFSFSGSYWICWVRQAPGKGLEWVGCINGGSLDITYYASWAKGRFTISRDTSKNTVYLQKTSLRAEDTAVYYCASDTSYTAYGNFYFNLWGQGTLVTVSS VL: EIVMTQSPSPLSASVGDRVIITCQSSQSVLNNNWLAWYQQKPGKAPKLLIYDASSLASGVPSRFSGSGSGAEFTLTISSLQPDDFATYYCQGEFSCGSADCNAFGQGTKLTVL | 2.62 fold over background (IgG control) | 1 | 2.25 fold over background (IgG control) | 1.45 | – |
| MYT9507 (antibody, V domains shown) VH: EVQLVESGGGLVQPGGSLRLSCTASGFSFSSSHWICWVRQAPGKGLEWVGCIYAGSIGSTYYASWAKGRFTISRDTSKNTVYLQMNSLRAEDTAVYYCARAPNDIYNYYFNLWGQGTLVTVSS VL: EIVMTQSPSTLSASVGDRVIITCDASENIYNYLAWYQQKPGKAPKLLIYYASTLASGVPSRFSGSGSGAEFTLTISSLQPDDFATYYCQSGYVSKSSTFGQGTKLTVL | 3.16 fold over background (IgG control) | 1.33 | 3.58 fold over background (IgG control) | 3.01 | – |
| MYT9523 (antibody, V domains shown) VH: EVQLVESGGGLVQPGGSLRLSCTASGFSFSSSHWICWVRQAPGKGLEWVGCIYAGSIGSTYYASWAKGRFTISRDTSKNTVYLQMNSLRAEDTAVYYCARAPNDIYNYYFNLWGQGTLVTVSS VL: EIVMTQSPSTLSASVGDRVIITCQASENIYNYLAWYQQKPGKAPKLLIYYASTLDSGVPSRFSGSGSGAEFTLTISSLQPDDFATYYCQSGYVSKSSTFGQGTKLTVL | 3.23 fold over background (IgG control) | 1.37 | 3.05 fold over background (IgG control) | 2.4 | – |
